Reference: US20240182864A1, “NOVEL CHEMICAL COMBINATIONS AND METHODS OF USE THEREOF, TOWARDS DIFFERENTIATION OF HUMAN PROGENITOR CELLS INTO FUNCTIONAL BETA CELLS” (Salk Institute for Biological Studies, priority 2021, published 2024)

Tested on: H1 hESCs
Assay: Generation of pancreatic progenitors (stages 1-4) and PP 3D clusters, flow cytometry for PDX1/NKX6.1
Type: cell-based, human
Procedure: hESCs were maintained as feeder-free in mTeSR™1 (STEMCELL Technologies Inc.) according to the manufacturer's instructions. Before differentiation, adherent hESCs (at ˜90% confluence) were rinsed with PBS and then incubated with Accutase (Millipore) for 6-8 min at 37° C. Dissociated single cells were rinsed twice with DMEM/F12 and spun at 300 g for 3 min. The resulting cells were re-suspended in mTeSR™1 which was supplied with 10μM Y27632 (Sigma-Aldrich), and seeded on 1:30 diluted Matrigel (BD Biosciences)-coated dishes at a density of 55,000 cells/cm^2. The next day, the medium was exchanged for mTeSR™MI and maintained for one more day prior to differentiation initiation.
Stage 1: Definitive Endoderm (3 days). […] Each 800 ml MS12 medium was made with 744 ml MCDB131 medium (ThermoFisher), 3.2 ml 45% glucose (Sigma), 20 ml 20% fat-acid free BSA, and 16 ml 7.5% sodium bicarbonate (Gibco).
Stage 2: Posterior Foregut (3 days): after PBS rinse, cells are exposed to MS12 medium with KGF (Peprotech, 50 ng/ml), B27 (Gibco, 100×), Vitamin C (Vc, 0.25 mM, sigma) and dorsomorphin (0.75 μM). Cells were fed with fresh medium daily.
Stage 3: Pancreatic endoderm (3 days): After PBS rinse, cells were exposed to DMEM with B27 (100×), retinoic acid (RA, 2 μM, Sigma), Noggin (100 ng/ml, Peprotech), SANTI (0.25 μM, sigma), Vitamin C (Vc, 0.25 mM, sigma), Pen/Strep (100×, Gibco) and Glutamax (100×, Gibco). Cells were fed with fresh medium every other day.
Stage 4: Pancreatic progenitor (3-4 days): After PBS rinse, cells were exposed to DMEM with B27 (100×), EGF (100 ng/ml, Peprotech)+Nicotinamide (NICO, 10 mM; Sigma)+Noggin (100ng/ml)+Vc (0.25 mM). Cells were fed with fresh medium every other day.
V-bottom plate based aggregation: stage-4 cells were rinsed with PBS and then incubated with Accutase (Millipore) for 10-15 min at 37° C. Dissociated single cells were rinsed twice with DMEM/F12 and spun at 300 g for 3 min. The resulting cells were re-suspended in an aggregation medium supplied with 10μM Y27632 (Sigma-Aldrich). Cell solution with 0.1-0.4 (according to experimental design) million cells was added into each well of V-bottom 96-well plate, followed by a spun at 300 g for 3 min. The plate was put into 37° C. incubator for 8-12 hours to form clusters. Aggregation medium was made of V4b-Medium+heparin (Sigma, H3149, 10 μg/ml)+ZnSO4 (10 μM, sigma, Z0251)+LDN193189 (LDN, Tocris, 100 nM)+T3 (1 μM, Sigma, T6397)+RA ([…])+SANTI (0.25 μM: Tocris)+GABA (1 mM, Sigma)+human EGF (100 ng/ml, Peprotech)+NICO (10 mM)+VC (0.25 mM). V4b-Medium (800 ml) was made of 360 ml MCDB 131 medium+180 ml F12 medium+180 ml KO-DMEM medium+3.9 ml Glucose (45%, Sigma)+80ml 20% FF-BSA+16 ml Sodium Bicarbonate (7.5%)+4 ml ITX+8 ml Pen/Strep+8ml Glutamax: all items were purchased from Thermo Fisher Scientific unless otherwise indicated.
Single-cell suspension from cell cultures: Differentiated hESC cultures were rinsed with PBS and then incubated with 0.25% trypsin-EDTA (Life Technologies) at 37° C. for 1-3 minutes. The trypsin was neutralized with MEF medium. The dissociated cells were rinsed twice in PBS or DMEM/F12 medium for further analysis. For intracellular antibody staining, single cells were fixed in 200 μL of BD Cytofix/Cytoperm Buffer (BD Biosciences) at 4° C. for 20 minutes followed by three washes in BD Perm/Wash Buffer. Fixed cells were incubated in 150 μL of primary antibody buffer at 4° C. for 1 hour, followed by 30 minutes in a secondary antibody (if there is a secondary antibody) buffer after being rinsed twice in Perm/Wash Buffer. Stained cells were washed twice in Perm/Wash Buffer prior to analyses. The acquired data were analyzed by FlowJo.
Efficient generation of PP 3D-clusters is responsible for generating functional βcells. An hPSC reporter line with NKX6.1-NLS-GFP has been generated by homologous recombination (FIG. 1A and data not shown), which aids in the study of functional β cell production protocols. […]

[1] = Constant high-dose of Activin-A (115-115-115 ng/ml day 1-day 2-day 3)
[2] = Constant low-dose of Activin-A (100-100-100 ng/ml day 1-day 2-day 3)
[3] = Decreasing gradient dose of Activin-A (115-110-100 ng/ml day 1-day 2-day 3)

B1: Activin-A: a TGFβ family member used at stage 1 (protein, UniProt P08476 311-426, looked up)
Inhibin beta A chain: GLECDGKVNICCKKQFFVSFKDIGWNDWIIAPSGYHANYCEGECPSHIAGTSGSSLSFHSTVINHYRMRGHSPFANLKSCCVPTKLRPMSMLYYDDGQNIIKKDIQNMIVEECGCS
modifications: Inhibin beta A chain
What does the source list for B1?
NKX6.1-positve cells [1]: ~20%-50%; PDX1-positve cells [1]: ~90%; PDX1-postive/NKX6.1-positve cells [1]: ~20%-50%; NKX6.1-positve cells [2]: ~15%-50%; PDX1-positve cells [2]: ~50%-80%; PDX1-postive/NKX6.1-positve cells [2]: ~15%-50%; NKX6.1-positve cells [3]: ~80%; PDX1-positve cells [3]: ~93%; PDX1-postive/NKX6.1-positve cells [3]: ~80%; cell density and cell heterogeneity at stage 4 (constant low-dose Activin-A): appropriate cell density but resulting in high cell heterogeneity at stage 4; cell proliferation and cell density (high-dose Activin-A): severely reduced cell proliferation and resulted in suboptimal cell density
